In article PMC3799434, “RNA polymerase III-specific general transcription factor IIIC contains a heterodimer resembling TFIIF Rap30/Rap74” (Nucleic Acids Research, 2013):
Changes are numbered by the printed parent chain.

What was measured:
[1] = molecular target: T1, Sfc1 186-283 (winged helix, lacks WHI) (Schizosaccharomyces pombe, UniProt O14229 186-283); test: filter binding; conditions: Buffer D: 20 mM Tris-HCl pH 7.5, 200 mM KCl, 2 mM MgCl2, 10 mM DTT, 25 C (EMSA and nitrocellulose filter binding)
T1 sequence: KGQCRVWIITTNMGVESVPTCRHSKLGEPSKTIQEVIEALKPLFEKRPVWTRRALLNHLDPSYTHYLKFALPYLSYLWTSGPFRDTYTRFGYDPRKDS

Sfc1 111-456 = molecular target: T2, Sfc1 111-456 (Schizosaccharomyces pombe, UniProt O14229 111-456); test: filter binding; Buffer D: 20 mM Tris-HCl pH 7.5, 200 mM KCl, 2 mM MgCl2, 10 mM DTT, 25 C (EMSA and nitrocellulose filter binding); conditions: protein: recombinant; tags: N-terminal His-tag, TEV-cleaved; label: 32P; blunt
T2 sequence: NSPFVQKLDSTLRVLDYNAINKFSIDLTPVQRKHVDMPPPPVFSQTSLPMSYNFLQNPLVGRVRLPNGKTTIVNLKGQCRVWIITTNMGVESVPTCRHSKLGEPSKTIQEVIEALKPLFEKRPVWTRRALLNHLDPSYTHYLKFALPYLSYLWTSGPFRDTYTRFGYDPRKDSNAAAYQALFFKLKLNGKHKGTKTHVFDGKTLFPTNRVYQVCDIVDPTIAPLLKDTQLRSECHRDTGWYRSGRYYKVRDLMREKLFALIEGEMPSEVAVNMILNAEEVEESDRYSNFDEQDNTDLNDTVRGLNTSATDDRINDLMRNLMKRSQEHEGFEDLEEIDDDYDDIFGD

[2] = molecular target: T3, Sfc1 1-396;Sfc7 full length (Schizosaccharomyces …, UniProt O14229;A6X980 1-396;1-120, |); test: as above; conditions: protein: recombinant;recombinant; tags: N-terminal His-tag, TEV-cleaved;; copies: 1;1; label: 32P; blunt
T3 sequence 1: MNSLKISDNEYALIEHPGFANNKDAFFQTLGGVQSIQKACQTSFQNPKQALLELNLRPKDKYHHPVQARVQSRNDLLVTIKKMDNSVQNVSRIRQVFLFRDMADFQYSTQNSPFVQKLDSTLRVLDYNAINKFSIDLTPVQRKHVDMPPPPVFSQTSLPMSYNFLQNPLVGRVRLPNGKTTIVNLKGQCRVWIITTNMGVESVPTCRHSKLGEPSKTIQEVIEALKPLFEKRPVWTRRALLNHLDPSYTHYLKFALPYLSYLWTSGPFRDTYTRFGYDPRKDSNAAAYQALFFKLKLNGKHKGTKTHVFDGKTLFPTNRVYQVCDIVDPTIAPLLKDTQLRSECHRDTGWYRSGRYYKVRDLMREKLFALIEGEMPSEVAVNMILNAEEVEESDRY
T3 sequence 2: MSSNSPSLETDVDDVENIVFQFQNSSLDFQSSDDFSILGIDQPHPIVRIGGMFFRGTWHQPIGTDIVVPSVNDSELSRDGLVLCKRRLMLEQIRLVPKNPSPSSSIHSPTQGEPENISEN

Sfc1 186-456 = molecular target: T4, Sfc1 186-456 (Schizosaccharomyces pombe, UniProt O14229 186-456); test: as above; conditions: protein: recombinant; tags: N-terminal His-tag, TEV-cleaved; label: 32P; blunt
T4 sequence: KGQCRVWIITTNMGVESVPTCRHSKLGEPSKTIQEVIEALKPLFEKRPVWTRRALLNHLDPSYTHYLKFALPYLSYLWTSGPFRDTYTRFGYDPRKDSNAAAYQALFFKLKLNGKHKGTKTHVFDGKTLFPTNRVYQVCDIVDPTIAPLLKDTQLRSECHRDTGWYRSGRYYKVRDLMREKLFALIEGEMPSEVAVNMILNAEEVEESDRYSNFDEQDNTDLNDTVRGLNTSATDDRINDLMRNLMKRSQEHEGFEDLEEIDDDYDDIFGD

[3] = molecular target: T5, Sfc1 full length;Sfc7 full length (Schizosaccharomyces …, UniProt O14229;A6X980 1-456;1-120, |); test: as above; conditions: protein: recombinant;recombinant; tags: N-terminal His-tag, TEV-cleaved;; copies: 1;1; label: 32P; blunt
T5 sequence 1: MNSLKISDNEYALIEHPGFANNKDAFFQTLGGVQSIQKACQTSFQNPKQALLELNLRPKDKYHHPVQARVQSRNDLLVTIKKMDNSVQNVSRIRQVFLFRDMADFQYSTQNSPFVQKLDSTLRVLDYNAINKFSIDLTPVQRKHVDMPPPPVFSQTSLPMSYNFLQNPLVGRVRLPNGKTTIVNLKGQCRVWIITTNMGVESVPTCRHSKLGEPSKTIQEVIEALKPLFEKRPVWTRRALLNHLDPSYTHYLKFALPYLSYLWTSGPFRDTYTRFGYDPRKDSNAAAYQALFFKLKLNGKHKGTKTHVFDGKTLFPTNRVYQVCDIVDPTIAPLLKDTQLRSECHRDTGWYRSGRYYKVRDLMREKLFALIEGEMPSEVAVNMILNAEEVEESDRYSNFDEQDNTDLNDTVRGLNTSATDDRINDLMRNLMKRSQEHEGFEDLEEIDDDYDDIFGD
T5 sequence 2: T3 sequence 2

[4] = molecular target: T1, Sfc1 186-283 (winged helix, lacks WHI); test: as above; conditions: protein: recombinant; tags: N-terminal His-tag, TEV-cleaved; label: 32P; blunt
Sfc1-DBD R269A = molecular target: T6, Sfc1-DBD R269A (Schizosaccharomyces pombe, UniProt O14229 186-396, R269A); test: as above; conditions: protein: recombinant; tags: N-terminal His-tag, TEV-cleaved; label: 32P; blunt
T6 sequence: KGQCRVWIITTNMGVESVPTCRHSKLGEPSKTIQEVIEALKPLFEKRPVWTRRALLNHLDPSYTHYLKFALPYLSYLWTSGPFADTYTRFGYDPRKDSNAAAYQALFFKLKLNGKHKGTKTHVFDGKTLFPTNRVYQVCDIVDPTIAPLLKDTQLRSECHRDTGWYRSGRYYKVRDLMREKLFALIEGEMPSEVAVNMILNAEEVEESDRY

Sfc1-DBD R269A/K294A = molecular target: T7, Sfc1-DBD R269A/K294A (Schizosaccharomyces pombe, UniProt O14229 186-396, R269A;K294A); test: as above; conditions: protein: recombinant; tags: N-terminal His-tag, TEV-cleaved; label: 32P; blunt
T7 sequence: T6 sequence with K109A

Sfc1-DBD R237A = molecular target: T8, Sfc1-DBD R237A (Schizosaccharomyces pombe, UniProt O14229 186-396, R237A); test: as above; conditions: protein: recombinant; tags: N-terminal His-tag, TEV-cleaved; label: 32P; blunt
T8 sequence: T6 sequence with R52A, A84R

Sfc1-DBD K294A = molecular target: T9, Sfc1-DBD K294A (Schizosaccharomyces pombe, UniProt O14229 186-396, K294A); test: as above; conditions: protein: recombinant; tags: N-terminal His-tag, TEV-cleaved; label: 32P; blunt
T9 sequence: T6 sequence with A84R, K109A

Sfc1-DBD = molecular target: T10, Sfc1-DBD (Schizosaccharomyces pombe, UniProt O14229 186-396); test: unspecified (data not shown); similar affinity to A-box; Buffer D: 20 mM Tris-HCl pH 7.5, 200 mM KCl, 2 mM MgCl2, 10 mM DTT, 25 C (EMSA and nitrocellulose filter binding); conditions: protein: recombinant; tags: N-terminal His-tag, TEV-cleaved; label: 32P; blunt
T10 sequence: T6 sequence with A84R

[5] = molecular target: T11, Sfc7 (S. pombe TFIIIC τA subunit), full length (Schizosaccharomyces pombe, UniProt A6X980 1-120); test: ion-exchange chromatography; fragments from limited proteolysis of the purified Sfc1/Sfc7 heterodimer, separated by ion-exchange chromatography; conditions: both partners purified
T11 construct: Sfc7, Schizosaccharomyces pombe, full length (Mr = 13.3 kDa); cloned into pCDF-MCN; PDB 4BJJ holds residues 1-101; also called orthologue of S. cerevisiae τ55 (Tfc7) and human TFIIIC35; source: E. coli BL21 (DE3) RIPL, co-expressed with Sfc1, purified (Ni-NTA, TEV, second Ni-NTA, Mono Q, Superdex S200)
T11 sequence (looked up): T3 sequence 2

[6] = molecular target: T12, Sfc1-DBD (C-terminal DNA-binding domain of Sfc1, residues 186-396), recombinant (Schizosaccharomyces pombe, UniProt O14229 186-396); test: ITC; 25°C, VP-ITC; 50 mM HEPES pH 7.5, 150 mM NaCl, 2 mM β-mercaptoethanol; 10 µl injections of 200 µM peptide into 2 ml of 10 µM protein; data not shown; conditions: both partners purified
T12 construct: Sfc1, Schizosaccharomyces pombe, residues 186-396 (winged-helix domain 186-283 and WHI domain 284-396); The crystal structure (4BJI) used selenomethionine-substituted protein; Purification details are in the Supplemental Methods; source: E. coli, purified (Ni-NTA, TEV, ion exchange, no gel filtration); not shown: His-tag, N-terminal, cleaved
T12 sequence (looked up): T6 sequence with A84R

**Q.** A-box non-coding ssDNA (nc-ss) was tested. Which binding signal (fold lower affinity than Sfc1-DBD) [1] did it give?
**A.** Its binding signal (fold lower affinity than Sfc1-DBD) is 10.

B1: A-box dsDNA (25 bp) (dsDNA)
DNA 1: CGAAGTGGCCGAGTGGTCTATGGCG
DNA 2: CGCCATAGACCACTCGGCCACTTCG
**Q.** What does the source list for B1?
**A.** binding result (Sfc1 111-456): no binding; binding result [2]: binds; binding result (Sfc1 186-456): no binding; binding result [3]: no binding; binding signal [4]: ~10 fold lower affinity than Sfc1-DBD; binding signal (Sfc1-DBD R269A): > 2 fold lower affinity than Sfc1-DBD; binding signal (Sfc1-DBD R269A/K294A): > 2 fold lower affinity than Sfc1-DBD; binding signal (Sfc1-DBD R237A): > 2 fold lower affinity than Sfc1-DBD; binding signal (Sfc1-DBD K294A): > 2 fold lower affinity than Sfc1-DBD

B2: B-box dsDNA (25 bp) (dsDNA)
DNA 1: CGACCCGGGTTCGATTCCCGGCCAA
DNA 2: TTGGCCGGGAATCGAACCCGGGTCG
**Q.** Does B2 bind (Sfc1-DBD)?
**A.** Result: binds

B3: Sfc1-NT, smaller protease-resistant Sfc1 fragment (residues 1-107) (domain or fragment, Schizosaccharomyces pombe, UniProt O14229 1-107, looked up)
chain: MNSLKISDNEYALIEHPGFANNKDAFFQTLGGVQSIQKACQTSFQNPKQALLELNLRPKDKYHHPVQARVQSRNDLLVTIKKMDNSVQNVSRIRQVFLFRDMADFQY
notes: Sfc1, Schizosaccharomyces pombe, residues 1-107, assigned by electrospray mass spectrometry and peptide mass fingerprinting; also called smaller Sfc1 fragment; source: limited proteolysis of the purified Sfc1/Sfc7 heterodimer made in E. coli; not shown: His-tag, N-terminal, cleaved
**Q.** Does B3 bind [5]?
**A.** Result: binds

B4: Sfc1_(435-456) synthetic peptide (22mer acidic Sfc1 tail peptide) (peptide)
peptide: QEHEGFEDLEEIDDDYDDIFGD
notes: Sfc1, Schizosaccharomyces pombe, the 22 C-terminal residues (435-456), pI 3.5; The methods call it Sfc1_(434-456); also called Sfc1_(434-456) peptide (methods); acidic tail peptide; source: synthetic peptide
**Q.** How did the Kd [6] turn out when B4 was run?
**A.** Its Kd is 3000 ± 800 nM.
